23 molecules from patent publication US20210277061A1 (UNIVERSITY OF HONG KONG, published 2021) can be followed below.

Where two headings read alike, the source gives them in different places. No end group written: not given here. *: point of attachment. 2Furoyl = O=C(c1ccco1)*; Cbz = O=C(OCc1ccccc1)*

Assay [1] addresses T1, AF9 YEATS domain, His-AF9 (1-138) (human, UniProt P42568 1-138).
T1 construct: Expressed in E. coli; not shown: His tag
T1 sequence (looked up): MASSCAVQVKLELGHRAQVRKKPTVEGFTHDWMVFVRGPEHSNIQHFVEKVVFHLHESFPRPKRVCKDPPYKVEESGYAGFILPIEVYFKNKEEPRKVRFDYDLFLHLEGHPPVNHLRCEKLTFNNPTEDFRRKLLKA
Put plainly: photo-cross-linking competition vs photoaffinity probe, in-gel fluorescence.

The target in assay [2] is T1, AF9 YEATS domain, His-AF9 (1-138). Described as above. The source holds these as a separate data set.
For assay [3] the target is unchanged. Put plainly: ITC. Background: ITC needs no label: the signal is the heat of the interaction.
For assay [4] the target is unchanged. Put plainly: ITC. The source holds these as a separate data set.

B1: compound 24 (XL-07h) (peptide)
peptide: H-QTARK(2Furoyl)-NH2
SMILES: C[C@H](NC(=O)[C@@H](NC(=O)[C@@H](N)CCC(N)=O)[C@@H](C)O)C(=O)N[C@@H](CCCNC(=N)N)C(=O)N[C@@H](CCCCNC(=O)c1ccco1)C(N)=O
notes: also called 4.7h
As for B1, in assay [1], the IC50 (as a rule, the concentration needed to halve the response being measured) came out at 4500 nM.

B2: compound 53 (competitor T6-A) (peptide)
peptide: Cbz-QAARK(2Furoyl)-NH2
SMILES: C[C@H](NC(=O)[C@H](C)NC(=O)[C@H](CCC(N)=O)NC(=O)OCc1ccccc1)C(=O)N[C@@H](CCCNC(=N)N)C(=O)N[C@@H](CCCCNC(=O)c1ccco1)C(N)=O
notes: Full structure only as drawing
Turning to B2, the figures for the IC50 in assay [2] and in assay [1] were 715 nM and 720 nM, respectively.

B3: compound 47 (competitor A7-L) (peptide)
peptide: Cbz-QTLRK(2Furoyl)-NH2
SMILES: CC(C)C[C@H](NC(=O)[C@@H](NC(=O)[C@H](CCC(N)=O)NC(=O)OCc1ccccc1)[C@@H](C)O)C(=O)N[C@@H](CCCNC(=N)N)C(=O)N[C@@H](CCCCNC(=O)c1ccco1)C(N)=O
notes: as for B2
As to B3, the figures for the IC50 in assay [2] and in assay [1] were 338 nM and 340 nM, respectively.

B4: compound 49 (competitor A7-W) (peptide)
peptide: Cbz-QTWRK(2Furoyl)-NH2
SMILES: C[C@@H](O)[C@H](NC(=O)[C@H](CCC(N)=O)NC(=O)OCc1ccccc1)C(=O)N[C@@H](Cc1c[nH]c2ccccc12)C(=O)N[C@@H](CCCNC(=N)N)C(=O)N[C@@H](CCCCNC(=O)c1ccco1)C(N)=O
notes: as for B2
For B4, the IC50 in assay [2] stood at 315 nM; in assay [1], 320 nM.

B5: compound 55 (competitor T6-S) (peptide)
peptide: Cbz-QSARK(2Furoyl)-NH2
SMILES: C[C@H](NC(=O)[C@H](CO)NC(=O)[C@H](CCC(N)=O)NC(=O)OCc1ccccc1)C(=O)N[C@@H](CCCNC(=N)N)C(=O)N[C@@H](CCCCNC(=O)c1ccco1)C(N)=O
notes: as for B2
As for B5, the IC50 is 778 nM in assay [2] and 780 nM in assay [1].

B6: compound 5 (XL-05) (peptide)
peptide: KQTARK(isonicotinoyl)STGG-NH2
notes: also called 4.5
Molecule B6 registered an IC50 in assay [1] of 2100 nM.

B7: compound 12 (XL-12) (peptide)
peptide: KQTARKSTGG-NH2
modifications: not fully specified (residue 6); also: Lys6 acylated with group R, structure drawing only
notes: also called 4.12
In the case of B7, in assay [1], the IC50 came out at 10400 nM.

B8: compound 7 (XL-07) (peptide)
peptide: KQTARK(2Furoyl)STGG-NH2
modifications: N-terminus assumed
SMILES: C[C@H](NC(=O)[C@@H](NC(=O)[C@H](CCC(N)=O)NC(=O)[C@@H](N)CCCCN)[C@@H](C)O)C(=O)N[C@@H](CCCNC(=N)N)C(=O)N[C@@H](CCCCNC(=O)c1ccco1)C(=O)N[C@@H](CO)C(=O)N[C@H](C(=O)NCC(=O)NCC(N)=O)[C@@H](C)O
notes: also called 4.7
Regarding B8, in assay [3], the “fold binding enhancement over the native crotonyl group (H3K9cr)” value came to 4.5 fold. In assay [4], the Kd (as a rule, the concentration at which binding is half-saturated) worked out at 3300 nM; the “N (sites)” value turned out to be 0.91 sites; the ΔH was -12.2 kcal/mol; the ΔS is -15.9 cal/mol/deg. In assay [1], this molecule yielded an IC50 of 1300 nM.

B9: peptide control (competitor control) (peptide)
peptide: Cbz-QTARK(2Furoyl)-NH2
SMILES: C[C@H](NC(=O)[C@@H](NC(=O)[C@H](CCC(N)=O)NC(=O)OCc1ccccc1)[C@@H](C)O)C(=O)N[C@@H](CCCNC(=N)N)C(=O)N[C@@H](CCCCNC(=O)c1ccco1)C(N)=O
B9 returned an IC50 in assay [2] of 189 nM.

B10: compound 15 (XL-15) (peptide)
peptide: KQTARKSTGG-NH2
modifications: not fully specified (residue 6); also: Lys6 acylated with group R, structure drawing only
notes: also called 4.15
Molecule B10 displayed an IC50 in assay [1] of 24500 nM.

B11: compound 16 (XL-16) (peptide)
peptide: KQTARKSTGG-NH2
modifications: not fully specified (residue 6); also: Lys6 acylated with group R, structure drawing only
notes: also called 4.16
Take B11: the half-maximal inhibitory concentration (IC50) in assay [1] turned out to be 12600 nM.

B12: compound 3 (XL-03) (peptide)
peptide: KQTARKSTGG-NH2
modifications: not fully specified (residue 6); also: Lys6 acylated with group R, structure drawing only
notes: also called 4.3
In assay [1], B12 yielded an IC50 of 22100 nM.

B13: compound 4 (XL-04) (peptide)
peptide: KQTARKSTGG-NH2
modifications: not fully specified (residue 6); also: Lys6 acylated with group R, structure drawing only
notes: also called 4.4
Consider B13, for which, in assay [1], the IC50 was found to be 22200 nM.

B14: compound 2 (XL-02) (peptide)
peptide: KQTARKSTGG-NH2
modifications: not fully specified (residue 6); also: Lys6 acylated with group R, structure drawing only
notes: also called 4.2
As to B14, the half-maximal inhibitory concentration (IC50) in assay [1] stood at 29800 nM.

B15: compound 9 (XL-09) (peptide)
peptide: KQTARK(Arg)STGG-NH2
modifications: also: Lys6 acylated with group R, shown only as a drawing
notes: also called 4.9
Take B15: in assay [1], the IC50 came to 6500 nM.

B16: compound 74 (competitor Cbz-4) (peptide)
peptide: QTARK(2Furoyl)-NH2
modifications: not fully specified (N-terminus)
notes: as for B2
Turning to B16, the IC50 in assay [2] turned out to be 226 nM; in assay [1] it was 230 nM.

B17: compound 8 (XL-08) (peptide)
peptide: KQTARK(3‑furancarbonyl)STGG-NH2
notes: also called 4.8
As to B17, the IC50 in assay [1] turned out to be 1700 nM.

B18: compound 10 (XL-10) (peptide)
peptide: KQTARKSTGG-NH2
modifications: not fully specified (residue 6); also: Lys6 acylated with group R, structure drawing only
notes: also called 4.10
B18 yielded a concentration for half-maximal inhibition (IC50) in assay [1] of 10600 nM.

B19: compound 25 (XL-07i) (peptide)
peptide: H-KQTARK(2Furoyl)-NH2
SMILES: C[C@H](NC(=O)[C@@H](NC(=O)[C@H](CCC(N)=O)NC(=O)[C@@H](N)CCCCN)[C@@H](C)O)C(=O)N[C@@H](CCCNC(=N)N)C(=O)N[C@@H](CCCCNC(=O)c1ccco1)C(N)=O
notes: also called 4.7i
As for B19, the IC50 in assay [1] came to 460 nM.

B20: compound 86 (negative control), XL-17 (peptide)
peptide: KQTARK(cyclopentanecarbonyl)STGG-NH2
notes: also called 4.17
With B20, the IC50 in assay [1] was 34500 nM.

B21: compound 14 (XL-14) (peptide)
peptide: KQTARK(4‑oxazolecarbonyl)STGG-NH2
notes: also called 4.14
On to B21, for which, in assay [1], the IC50 came to 3000 nM.

B22: compound 6 (XL-06) (peptide)
peptide: KQTARK(2‑pyrimidinecarbonyl)STGG-NH2
notes: also called 4.6
The molecule B22 came in with an IC50 in assay [1] of 3700 nM.

B23: compound 11 (XL-11) (peptide)
peptide: KQTARKSTGG-NH2
modifications: not fully specified (residue 6); also: Lys6 acylated with group R, structure drawing only
notes: also called 4.11
As for B23, the IC50 in assay [1] came out at 15700 nM.
